Key:
[1] = target: T1, HLA-A*0201 molecule expressed on the human tumoral cell T2 (human); experiment: T2 cell HLA-A2 FACS (BB7.2-PE), peptide 1 µM
T1 construct: Empty or peptide-receptive class I molecule on T2 cells; surface level read with anti-HLA-A2 antibody BB7.2-PE after incubation with the peptide; also called HLA-A2
Description: (§1) T2 cells (2·10⁵ cells per well) are incubated with decreasing concentrations of peptides from 100 μM to 0.1 μM in a AIMV medium supplemented with 100 ng/μl of human β2m at 37° C. for 16 hours. Cells are then washed two times and marked with the anti-HLA-A2 antibody coupled to PE (clone BB7.2, BD Pharmagen).
(§2) The relative affinity is then determined as follows: […]

[2] = target: T1, HLA-A*0201 molecule expressed on the …; experiment: T2 cell HLA-A2 FACS (BB7.2-PE), peptide 100 µM
Description: as §1, §2

[3] = target: T1, HLA-A*0201 molecule expressed on the …; experiment: T2 cell HLA-A2 FACS (BB7.2-PE); ratio of 20% concentrations against HIV pol 589-597
Description: as §1, §2

[4] = target: T1, HLA-A*0201 molecule expressed on the …; experiment: T2 cell HLA-A2 FACS (BB7.2-PE), peptide 0.1 µM
Description: as §1, §2

[5] = target: T1, HLA-A*0201 molecule expressed on the …; experiment: T2 cell HLA-A2 FACS (BB7.2-PE), peptide titration
Description: as §1, §2

[6] = target: T1, HLA-A*0201 molecule expressed on the …; experiment: T2 cell HLA-A2 FACS (BB7.2-PE), peptide 10 µM
Description: as §1, §2

Row | Binder | HLA-A2 labelling as % of reference peptide HIV pol 589-597 at 100 µM [1] [%] | HLA-A2 labelling as % of reference peptide HIV pol 589-597 at 100 µM [2] [%] | Relative affinity [3] | HLA-A2 labelling as % of reference peptide HIV pol 589-597 at 100 µM [4] [%] | Conc. inducing 20% of HLA-A2 expression [5] [µM] | HLA-A2 labelling as % of reference peptide HIV pol 589-597 at 100 µM [6] [%]
1 | YLAVFLPIV [antigenic peptide STEAP-B2 (YLAVFLPIV)] | 4.87 | 97.9 | 0.27 | -0.34 | 8.22 | 27.7
2 | SLPPDVQQV [antigenic peptide MMP2-B (SLPPDVQQV)] | 24.6 | 131 | 0.03 | 4.69 | 0.88 | 96
3 | VMLGVVFGV [antigenic peptide ERBB2-3B1 (VMLGVVFGV)] | -12.9 | 122 | 0.25 | -16 | 9 | 26.7
4 | VMLGVVFGI [antigenic peptide ERBB2-3B3 (VMLGVVFGI)] | -10.6 | 179 | 0.35 | -16.3 | 12.5 | 16.6
5 | MIAVFLPIV [reference human peptide derived from STEAP, STEAP-H (MIAVFLPIV)] | -4.47 | 102 | 1.08 | 0.11 | 33.5 | 14.9
6 | ILLGVVFGI [antigenic peptide ERBB2-3B4 (ILLGVVFGI)] | 26.1 | 265 | 0.03 | -11.6 | 0.9 | 138
7 | RLLEETDLV [antigenic peptide ERBB2-1B (RLLEETDLV)] | 2.86 | 297 | 0.26 | -1.18 | 9.5 | 26.4
8 | MLAVFLPLV [antigenic peptide STEAP-B1 (MLAVFLPLV)] | 8.92 | 132 | 0.16 | 6.67 | 5 | 45.1
9 | KLVEWLAML [antigenic peptide MAGE C1B (KLVEWLAML)] | 3.97 | 109 | 0.31 | 2.45 | 30.9 | 21.4
10 | GLPPDVQRV [reference human peptide derived from MMP2, MMP2-H (GLPPDVQRV)] | 17.8 | 154 | 0.06 | 5.41 | 1.76 | 66.3
11 | ITSDVPFSV [antigenic peptide PMEL-B (ITSDVPFSV)] | 3.62 | 74.8 | 0.59 | 4.69 | 18.2 | 7.93
12 | KVVEFLAML [reference human peptide derived from MAGE C1, MAGE C1H (KVVEFLAML)] | 7.12 | 32.3 | 1.94 | 5.77 | 60.1 | 7.84
